# Assay results: PMC7948952, “Structural basis for multifunctional roles of human Ints3 C-terminal domain” (The Journal of Biological Chemistry, 2020)
# Substitutions are numbered along the chain they refer to. Names may count otherwise.
# B1: MBP-Ints6-807-887 (domain or fragment, UniProt Q9UL03 807-887, looked up)
# chain: EVNTELKAQIMKEIRKPGRKYERIFTLLKHVQGSLQTRLIFLQNVIKEASRFKKRMLIEQLENFLDEIHRRANQINHINSN
# notes: Integrator complex subunit 6 (Ints6, DDX26a), residues 807-887; cDNA from DNAsu; Made in a modified pMal-c2X vector: an AAAEF linker and no protease site stand between MBP and Ints6-807-887; the MBP-Ints6-807-887 region was then cloned into pRSFDuet-1; also called MBP-tagged Ints6-807-887; source: E. coli BL21-CodonPlus (DE3)-RIPL, purified (amylose resin, HiTrap Q); also coexpressed with …
# B2: Ints3-555-976 (human Ints3 C-terminal domain), wild type (domain or fragment, UniProt Q68E01-2 555-976, looked up)
# chain: PIKETVVEEPVDITPYLDQLDESLRDKVLQLQKGSDTEAQCEVMQEIVDQVLEEDFDSEQLSVLASCLQELFKAHFRGEVLPEEITEESLEESVGKPLYLIFRNLCQMQEDNSSFSLLLDLLSELYQKQPKIGYHLLYYLRASKAAAGKMNLYESFAQATQLGDLHTCLMMDMKACQEDDVRLLCHLTPSIYTEFPDETLRSGELLNMIVAVIDSAQLQELVCHVMMGNLVMFRKDSVLNILIQSLDWETFEQYCAWQLFLAHNIPLETIIPILQHLKYKEHPEALSCLLLQLRREKPSEEMVKMVLSRPCHPDDQFTTSILRHWCMKHDELLAEHIKSLLIKNNSLPRKRQSLRSSSSKLAQLTLEQILEHLDNLRLNLTNTKQNFFSQTPILQALQHVQASCDEAHKMKFSDLFSLAEEY
# notes: numbers count on: UniProtKB Q68E01-2, 1042 amino acids; For crystallisation a trace of trypsin (1:1000 w/w) was added; it cuts after K557 and after K914, and both fragments stay in the crystal; SeMet protein was used for phasing; also called HR1-11; Band I; not shown: GST, N-terminal, cleaved
# B3: Ints3-555-976 K851E (domain or fragment, human, UniProt Q68E01-2 555-976, looked up)
# chain: B2 chain with K297E
# notes: numbers count on: UniProtKB Q68E01-2, 1042 amino acids; also called K851 E charge mutant; source: purified to homogeneity (gel filtration)
# B4: Ints3-555-976 R788E/K789E (domain or fragment, human, UniProt Q68E01-2 555-976, looked up)
# chain: B2 chain with R234E, K235E
# notes: numbers count on: UniProtKB Q68E01-2, 1042 amino acids; source: purified to homogeneity (gel filtration)
# B5: rU30 (ssRNA)
# RNA: UUUUUUUUUUUUUUUUUUUUUUUUUUUUUU
# Tests used:
# [1] = target: T1, GST-tagged Ints3-555-976 R863A/D869A (human, UniProt Q68E01-2 555-976, R863A | D869A); assay: pull-down; coexpression in E. coli of GST-tagged Ints3 constructs (pGEX-6p-1) and MBP-Ints6-807-887 (pRSFDuet-1), GST or MBP pull-down ('coexpression and reverse pull-down'); details: partners not purified
# T1 construct: numbers count on: UniProtKB Q68E01-2, 1042 amino acids; source: E. coli BL21, coexpressed with MBP-Ints6-807-887; also captured on glutathione Sepharose from lysate; not shown: GST, N-terminal, kept
# [2] = target: T2, GST-tagged Ints3-555-976, wild type (human, UniProt Q68E01-2 555-976); assay: pull-down; in vitro GST pull-down: GST-Ints3 captured on glutathione Sepharose 4B from BL21 lysates, incubated with about 15 μg purified MBP-Ints6-807-887; 20 mM Tris-HCl pH 8.0, 300 mM NaCl, 0.1% Nonidet P-40, 5% glycerol, 2 mM DTT, 2 h at 4 °C; anti-MBP blot; details: both partners purified
# T2 construct: numbers count on: UniProtKB Q68E01-2, 1042 amino acids; also called GST-Ints3; GST-tagged Ints3 C-terminal domain; source: E. coli BL21, captured on glutathione Sepharose from lysate; also coexpressed with MBP-Ints6-807-887; not shown: GST, N-terminal, kept
# [3] = target: T3, GST-tagged Ints3-555-899 (human, UniProt Q68E01-2 555-899); assay: as above; details: both partners purified
# T3 construct: numbers count on: UniProtKB Q68E01-2, 1042 amino acids; source: E. coli BL21, captured on glutathione Sepharose from lysate
# [4] = target: the molecule itself; assay: cross-linking; glutaraldehyde, final concentration 0.075%, SDS-PAGE; negative control with 1% SDS and 20 mM DTT added before the reaction
# [5] = target: the molecule itself; assay: SEC; Superdex 200 Increase 10/300 Gl, 100 μl of approximately 2 mg/ml, 0.5 ml/min; wild-type and mutant Ints3-555-976
# [6] = target: Ints3 C-terminal domain (Ints3-555-976) WT (human, UniProt Q68E01-2 555-976); assay: EMSA; roughly 100% bound at 25 uM protein; 20 mM Hepes pH 7.4, 100 mM NaCl, 1 mM MgCl2, 1 mg/ml BSA, 2 mM DTT, 5% glycerol; on ice 30 min; 7.5 nM probe; native 5% PAGE in 1X TBE; details: protein: recombinant; tags: His or GST (GST cleaved); chain copies: 2; label: 5' 32P; single strand
binder,measurement,setting,value
B1,binding result,[1],binds
same,binding result,[2],binds
same,binding result,[3],binds
B2,stoichiometry N,[4],2
B3,stoichiometry N,[5],2
B4,stoichiometry N,[5],2
B5,binding result,[6],binds
